# Laboratory results: paper PMC6159513
# T1: RGG3ΔRGG (UniProt P35637 449-526, del468-506)
# T1 chain: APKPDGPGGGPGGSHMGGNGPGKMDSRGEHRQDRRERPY
# What was measured:
# Experiment in all cases: EMSA
# [1] = biological target: TLS/FUSΔR (UniProt P35637 1-506)
# [2] = biological target: TLS/FUSΔP (UniProt P35637 1-526, del449-468)
# [3] = biological target: RGG3ΔP (UniProt P35637 469-526)
# [4] = biological target: RBD (RGG1-RGG2-RGG3 containing) (UniProt P35637 212-526)
# [5] = biological target: T1, RGG3ΔRGG
# [6] = biological target: RGG3 (UniProt P35637 449-526)
# [7] = biological target: TLS/FUS (UniProt P35637 1-526)
# Sequence of TLS/FUSΔR (P35637 1-506, stated change not applied): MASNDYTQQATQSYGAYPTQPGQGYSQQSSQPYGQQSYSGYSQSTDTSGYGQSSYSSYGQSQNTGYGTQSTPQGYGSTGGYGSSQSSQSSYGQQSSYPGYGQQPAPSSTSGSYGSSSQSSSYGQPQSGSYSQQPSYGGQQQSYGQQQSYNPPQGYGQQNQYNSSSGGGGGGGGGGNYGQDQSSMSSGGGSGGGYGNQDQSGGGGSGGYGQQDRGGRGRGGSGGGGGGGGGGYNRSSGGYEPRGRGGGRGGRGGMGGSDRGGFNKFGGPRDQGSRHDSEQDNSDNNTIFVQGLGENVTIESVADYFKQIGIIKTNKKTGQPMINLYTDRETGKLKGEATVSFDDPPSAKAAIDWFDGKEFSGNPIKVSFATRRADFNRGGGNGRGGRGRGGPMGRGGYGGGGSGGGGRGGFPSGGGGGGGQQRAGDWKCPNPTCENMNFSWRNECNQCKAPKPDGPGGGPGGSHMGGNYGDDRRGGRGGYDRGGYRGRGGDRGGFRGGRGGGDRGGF
# Sequence of RBD (RGG1-RGG2-RGG3 containing) (P35637 212-526): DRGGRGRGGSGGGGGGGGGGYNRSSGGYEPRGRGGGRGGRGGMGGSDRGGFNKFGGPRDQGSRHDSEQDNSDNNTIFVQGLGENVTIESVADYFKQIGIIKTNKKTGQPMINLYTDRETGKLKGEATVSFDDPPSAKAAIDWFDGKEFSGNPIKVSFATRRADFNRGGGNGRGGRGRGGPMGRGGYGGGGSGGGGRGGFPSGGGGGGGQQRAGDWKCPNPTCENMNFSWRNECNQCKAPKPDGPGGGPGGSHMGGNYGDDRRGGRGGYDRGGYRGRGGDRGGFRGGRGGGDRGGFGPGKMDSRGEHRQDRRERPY
Binder,binding result [1],binding result [2],binding result [3],Kd [4],binding result [5],binding result [6],binding result [7]
dsDNA (dsDNA) DNA 1: AGGGTTAGGGTTAGGGTTAGGG DNA 2: CCCTAACCCTAACCCTAACCCT,no binding,no binding,,,,,
AGGGTTAGGGTTAGGGTTAGGG (structured_DNA) [Htelo],no binding,no binding,no binding,6.7 ± 2 nM,no binding,,
AGGGTTAGTGTTAGTGTTAGGG (ssDNA) [ssDNA],no binding,no binding,,,no binding,no binding,
dsRNA (dsRNA) RNA 1: UUAGGGUUAGGGUUAGGGUUAGGG RNA 2: CCCUAACCCUAACCCUAACCCUAA,no binding,no binding,,,,,
UUAGGGUUAGUGUUAGUGUUAGGG (ssRNA) [ssRNA],no binding,no binding,,,no binding,no binding,binds
UUAGGGUUAGGGUUAGGGUUAGGG (structured_RNA) [TERRA],no binding,no binding,no binding,6.2 ± 2 nM,no binding,,
